According to US20250189530A1 (STCUBE, published 2025):

What was measured:
[1] = target: peptide 4 variant V362A expressed by HEK293T cells (human); assay: western blot, relative to WT
[2] = target: peptide 4 variant D369A expressed by HEK293T cells (human); assay: western blot, relative to WT
[3] = target: peptide 4 variant A371G expressed by HEK293T cells (human); assay: western blot, relative to WT
[4] = target: peptide 4 variant E361A expressed by HEK293T cells (human); assay: western blot, relative to WT
[5] = target: peptide 4 variant E363A expressed by HEK293T cells (human); assay: western blot, relative to WT
[6] = target: peptide 4 variant V374A expressed by HEK293T cells (human); assay: western blot, relative to WT
[7] = target: peptide 4 variant G365A expressed by HEK293T cells (human); assay: western blot, relative to WT
[8] = target: TRIM variant expressed by HEK293T cells; assay: western blot, relative to WT
[9] = target: peptide 4 variant G373A expressed by HEK293T cells (human); assay: western blot, relative to WT
[10] = target: peptide 4 variant I372A expressed by HEK293T cells (human); assay: western blot, relative to WT
[11] = target: peptide 4 variant T368A expressed by HEK293T cells (human); assay: western blot, relative to WT
[12] = target: peptide 4 variant W370A expressed by HEK293T cells (human); assay: western blot, relative to WT
[13] = target: peptide 4 variant V364A expressed by HEK293T cells (human); assay: western blot, relative to WT
[14] = target: peptide 4 variant C375A expressed by HEK293T cells (human); assay: western blot, relative to WT
[15] = target: peptide 4 WT expressed by HEK293T cells (human); assay: western blot, relative to WT
[16] = target: peptide 4 variant D366A expressed by HEK293T cells (human); assay: western blot, relative to WT
[17] = target: peptide 4 variant R367A expressed by HEK293T cells (human); assay: western blot, relative to WT
[18] = target: peptide 4 variant D369A expressed by HEK293T cells (human); assay: western blot, STC43H11-1 band over Flag band
[19] = target: peptide 4 variant A371G expressed by HEK293T cells (human); assay: western blot, STC43H11-1 band over Flag band
[20] = target: peptide 4 variant E363A expressed by HEK293T cells (human); assay: western blot, STC43H11-1 band over Flag band
[21] = target: peptide 4 variant V374A expressed by HEK293T cells (human); assay: western blot, STC43H11-1 band over Flag band
[22] = target: peptide 4 variant G373A expressed by HEK293T cells (human); assay: western blot, STC43H11-1 band over Flag band
[23] = target: peptide 4 variant W370A expressed by HEK293T cells (human); assay: western blot, STC43H11-1 band over Flag band
[24] = target: peptide 4 variant V364A expressed by HEK293T cells (human); assay: western blot, STC43H11-1 band over Flag band
[25] = target: peptide 4 variant C375A expressed by HEK293T cells (human); assay: western blot, STC43H11-1 band over Flag band
[26] = target: peptide 4 WT expressed by HEK293T cells (human); assay: western blot, STC43H11-1 band over Flag band
mouse BTN1A1 = target: T1, mouse BTN1A1 (mouse, UniProt Q62556 27-524, limits assumed); assay: immunohistochemistry, 2 ug/mL
T1 construct: also called mBTN1A1
T1 sequence (looked up): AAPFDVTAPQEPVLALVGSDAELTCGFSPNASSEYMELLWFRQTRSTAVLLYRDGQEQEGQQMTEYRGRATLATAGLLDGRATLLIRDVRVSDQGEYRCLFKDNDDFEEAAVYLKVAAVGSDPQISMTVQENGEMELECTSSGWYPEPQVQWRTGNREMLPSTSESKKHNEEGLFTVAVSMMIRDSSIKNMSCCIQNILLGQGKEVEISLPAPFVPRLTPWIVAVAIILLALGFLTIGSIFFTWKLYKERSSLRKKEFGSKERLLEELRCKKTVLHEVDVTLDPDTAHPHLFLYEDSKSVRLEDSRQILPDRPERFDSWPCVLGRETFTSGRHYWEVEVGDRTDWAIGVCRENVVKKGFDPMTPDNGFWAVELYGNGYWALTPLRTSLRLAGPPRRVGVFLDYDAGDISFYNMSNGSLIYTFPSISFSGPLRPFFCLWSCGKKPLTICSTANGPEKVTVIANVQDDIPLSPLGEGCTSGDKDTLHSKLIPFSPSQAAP
Text: […]

B1: STC43H11-1 (antibody, V domains shown)
VH: QSLEESGGRLVTPGGSLTLTCTVSGIDLSSYAMGWVRQAPGEGLEWIGSIGTGGGTGYASWAKGRFTISKTSTTVDLKMTSLTASDTATYFCATSNLWGPGTLVTVSS
VL: QVLTQTASPVSAAVGGTVTINCQASQSVYNNNRCSWFQQKPGQPPKRLIYHTSTLDSGVPSRFKGSGSGTQFTLTISDVQCDDAATYYCLGNYDCSRADCAAFGGGTEVVVK
notes: From immunized New Zealand rabbits; IgG heavy chain and Kappa light chain; also called clone #43H11; Clone 43H11
For B1, the % binding Rel. Quant. [1] was 247%, the % binding Rel. Quant. [2] was 0.178% and the % binding Rel. Quant. [3] was 9.41%. For the same binder, the % binding Rel. Quant. [4] was 48.3%, the % binding Rel. Quant. [5] was 67.6% and the % binding Rel. Quant. [6] was 49.6%. It also gave a % binding Rel. Quant. [7] of 86.8%, a % binding Rel. Quant. [8] of -0.213% and a % binding Rel. Quant. [9] of 2.25%. For the same binder, the % binding Rel. Quant. [10] was 0.127%, the % binding Rel. Quant. [11] was 10.4% and the % binding Rel. Quant. [12] was 8.25%. For the same binder, the % binding Rel. Quant. [13] was 26.8%, the % binding Rel. Quant. [14] was 277% and the % binding Rel. Quant. [15] was 100%. It also gave a % binding Rel. Quant. [16] of -8.55%, a % binding Rel. Quant. [17] of 50.1% and a Normalized Fold [18] of 0.000853. The Normalized Fold [19] was 0.045, the Normalized Fold [20] was 0.323 and the Normalized Fold [21] was 0.237. It also gave a Normalized Fold [22] of 0.0107, a Normalized Fold [23] of 0.0394 and a Normalized Fold [24] of 0.128. For the same binder, the Normalized Fold [25] was 1.32, the Normalized Fold [26] was 0.478 and the binding result (mouse BTN1A1) was “binds”.
